According to patent US20230357342A1 (published 2023):

Assays:
[1] = target: T1, IL-18 receptor on HEK-Blue IL18R reporter cells (UniProt Q13478 19-541; O95256 20-599, limits assumed); test: cell-based or functional assay
T1 sequence (looked up) 1: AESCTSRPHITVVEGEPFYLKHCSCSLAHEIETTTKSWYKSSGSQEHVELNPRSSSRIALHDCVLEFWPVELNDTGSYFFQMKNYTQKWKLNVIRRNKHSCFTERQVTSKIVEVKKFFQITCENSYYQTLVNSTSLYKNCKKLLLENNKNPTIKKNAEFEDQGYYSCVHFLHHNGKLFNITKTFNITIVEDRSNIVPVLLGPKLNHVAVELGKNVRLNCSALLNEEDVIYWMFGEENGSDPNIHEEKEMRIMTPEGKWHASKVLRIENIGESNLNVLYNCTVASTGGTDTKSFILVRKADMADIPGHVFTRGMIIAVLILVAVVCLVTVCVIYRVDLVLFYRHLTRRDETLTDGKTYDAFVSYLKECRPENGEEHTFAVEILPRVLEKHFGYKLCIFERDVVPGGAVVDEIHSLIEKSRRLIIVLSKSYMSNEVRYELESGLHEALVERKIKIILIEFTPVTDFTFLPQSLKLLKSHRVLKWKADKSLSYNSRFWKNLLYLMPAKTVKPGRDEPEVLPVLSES
T1 sequence (looked up) 2: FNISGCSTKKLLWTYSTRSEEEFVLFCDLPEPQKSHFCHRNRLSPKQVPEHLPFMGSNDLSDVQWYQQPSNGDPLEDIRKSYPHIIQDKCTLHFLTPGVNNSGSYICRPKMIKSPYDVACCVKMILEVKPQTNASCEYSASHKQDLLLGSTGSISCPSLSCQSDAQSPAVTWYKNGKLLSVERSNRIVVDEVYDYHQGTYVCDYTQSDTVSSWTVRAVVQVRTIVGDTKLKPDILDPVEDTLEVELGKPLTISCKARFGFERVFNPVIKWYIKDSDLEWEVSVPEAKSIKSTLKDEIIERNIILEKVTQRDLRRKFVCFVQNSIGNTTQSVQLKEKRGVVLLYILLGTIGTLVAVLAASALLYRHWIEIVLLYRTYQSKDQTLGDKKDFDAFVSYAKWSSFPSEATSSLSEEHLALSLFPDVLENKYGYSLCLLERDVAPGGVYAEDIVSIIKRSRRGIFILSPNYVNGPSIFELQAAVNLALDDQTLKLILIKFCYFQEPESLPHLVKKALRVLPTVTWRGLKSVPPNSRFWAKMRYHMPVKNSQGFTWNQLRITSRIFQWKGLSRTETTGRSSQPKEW

Fc fused human IL-18Rα = target: T2, Fc fused human IL-18Rα (human, UniProt Q13478 19-329); test: SPR, Fc-IL-18Rα captured via anti-human IgG, IL-18 as analyte, 1:1 model
T2 construct: captured by anti-human IgG on a CM5 chip; also called IL-18Rα monomer; human IL-18 receptor alpha (CD218a); not shown: Fc portion
T2 sequence (looked up): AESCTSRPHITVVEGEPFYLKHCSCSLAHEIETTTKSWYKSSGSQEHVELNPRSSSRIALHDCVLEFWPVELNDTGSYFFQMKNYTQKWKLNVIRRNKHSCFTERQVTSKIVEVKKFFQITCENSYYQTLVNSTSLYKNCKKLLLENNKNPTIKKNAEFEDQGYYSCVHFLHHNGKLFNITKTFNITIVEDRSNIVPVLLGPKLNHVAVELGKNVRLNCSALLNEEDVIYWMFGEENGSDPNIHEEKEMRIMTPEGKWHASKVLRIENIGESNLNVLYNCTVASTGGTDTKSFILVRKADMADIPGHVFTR
Method: (§1) The interaction of the wild type and of modified IL-18 polypeptides with human IL-18 receptor subunits are measured with Surface Plasmon Resonance (SPR) technology. Anti-human IgG antibodies are bound by amine coupling onto a CM5 chip to capture 6 μg/mL of Fc fused human IL-18Rα, 6 μg/mL of Fc fused human IL-18Rβ, or 2 μg/mL of Fc fused human IL-18BP isoform a (IL-18BPa) for 30 min before capture. In other settings, 6 μg/mL of alpha and beta IL-18 receptors are mixed and pre-incubated for 30 min before capture of the alpha/beta heterodimer IL-18 receptor.
(§2) The kinetic binding of the IL-18 analytes are measured with a Biacore 8K instrument in two fold serial dilutions starting at 1 μM down to 0.98 nM. Regeneration of the surface back to amine coupled anti IgG antibody is done after every concentration of analyte. To measure the protein association to the receptors, the samples are injected with a flow rate of 50 μL/min for 60 s, followed by 300 s buffer only to detect the dissociation. The used running buffer is 1×PBS with 0.05% Tween20. The relative response units (RU, Y-axis) are plotted against time (s, X-axis) and analyzed in a kinetic 1:1 binding model for the monomer receptor binding and for the binding to the IL-18BP. A kinetic heterogenous ligand fit model is applied for the alpha/beta heterodimer binding.

[2] = target: T3, IL-18Rα/β heterodimer (Fc fused human IL-18Rα mixed with Fc fused human IL-18Rβ) (human, UniProt Q13478 19-329; O95256 20-356); test: SPR, Fc-IL-18Rα and Fc-IL-18Rβ pre-mixed and captured, IL-18 as analyte, heterogeneous ligand model
T3 construct: 6 µg/mL of alpha and beta receptors were mixed and pre-incubated 30 min before capture on anti-human IgG; also called alpha/beta heterodimer IL-18 receptor; heterodimeric human IL-18 receptor alpha (CD218a) and IL-18R accessory protein (IL-18RAP/CDw218b); not shown: Fc portion
T3 sequence (looked up) 1: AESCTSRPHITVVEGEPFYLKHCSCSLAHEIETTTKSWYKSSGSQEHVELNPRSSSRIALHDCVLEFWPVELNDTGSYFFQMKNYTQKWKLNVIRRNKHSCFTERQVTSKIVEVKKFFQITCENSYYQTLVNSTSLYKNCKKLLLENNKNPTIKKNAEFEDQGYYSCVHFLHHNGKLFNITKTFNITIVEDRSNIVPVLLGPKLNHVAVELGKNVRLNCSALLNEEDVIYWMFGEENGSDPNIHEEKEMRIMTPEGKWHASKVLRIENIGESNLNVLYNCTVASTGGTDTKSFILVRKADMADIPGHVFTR
T3 sequence (looked up) 2: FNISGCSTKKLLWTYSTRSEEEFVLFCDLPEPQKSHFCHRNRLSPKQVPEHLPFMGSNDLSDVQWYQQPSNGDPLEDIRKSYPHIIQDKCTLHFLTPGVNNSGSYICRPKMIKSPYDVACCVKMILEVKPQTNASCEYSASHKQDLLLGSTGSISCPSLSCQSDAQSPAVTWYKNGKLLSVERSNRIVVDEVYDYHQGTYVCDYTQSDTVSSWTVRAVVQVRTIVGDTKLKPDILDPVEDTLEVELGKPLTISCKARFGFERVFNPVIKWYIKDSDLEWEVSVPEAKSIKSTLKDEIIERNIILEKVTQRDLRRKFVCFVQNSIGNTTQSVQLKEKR
Method: as §1, §2

- EC50, HEK-Blue IL18R reporter (SEAP) [1]: 0.53 nM
- Kd (Fc fused human IL-18Rα): 72.4 nM
- koff (Fc fused human IL-18Rα): 0.0151 s⁻¹
- kon (Fc fused human IL-18Rα): 208000 M⁻¹ s⁻¹
- Kd [2]: 2.92 nM
- koff [2]: 0.0008 s⁻¹
- kon [2]: 279000 M⁻¹ s⁻¹
B1: modified IL-18 polypeptide SEQ ID NO: 57 (E6K, C38S, K53A) (ligand)
chain: YFGKLKSKLSVIRNLNDQVLFIDQGNRPLFEDMTDSDSRDNAPRTIFIISMYADSQPRGMAVTISVKCEKISTLSCENKIISFKEMNPPDNIKDTKSDIIFFQRSVPGHDNKMQFESSSYEGYFLACEKERDLFKLILKKEDELGDRSIMFTVQNED
